Data: patent US20250034601A1 (PURDUE RESEARCH FOUNDATION, published 2025)

T1: cEYFP-PhBSβ (PhBSβ tagged at its N-terminus with the C-terminal half of EYFP) (Petunia hybrida)
T1 construct: BiFC construct, transiently expressed in Nicotiana benthamiana leaves; not shown: C-terminal half of enhanced yellow fluorescent protein (cEYFP) of plasmid pCNHP-cYFP-C
T1 chain: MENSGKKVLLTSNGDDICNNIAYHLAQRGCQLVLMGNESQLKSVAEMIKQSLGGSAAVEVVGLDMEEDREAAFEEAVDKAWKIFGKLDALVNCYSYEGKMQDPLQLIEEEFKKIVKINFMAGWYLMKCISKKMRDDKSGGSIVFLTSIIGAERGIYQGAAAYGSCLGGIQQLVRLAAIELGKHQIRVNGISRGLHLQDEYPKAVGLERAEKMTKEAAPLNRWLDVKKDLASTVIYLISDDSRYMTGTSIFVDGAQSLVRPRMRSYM

B1: MBP-PhBSα (maltose binding protein-tagged alpha subunit of Petunia hybrida benzaldehyde synthase) (enzyme, not shown: large carriers)
chain: MEKQTQARFLEPWRDLKGKVVMVTGASSGIGLDLCLDLAKAGCKIIAAARRVDRLKSLCNQINAAADDDDDNNRAVAVELDVSANGDAIEAAVKEAWGAFGRIDALVNNAGVRGTVHSPLELTEEECHNTFRTNLTGTWLVSKYVCKFMRDAKQGGSVINISSIAGLNRGQLPGGLAYVSSKGAVNMVTKVMALELGVDKIRVNSISPGLFKSEITQGLIQKEWLNNVAMRTIPLRTHGNSADPALTSVVRYLIHDSSEYVSGNLFIVDAGATLPGVPIFSSL
notes: Coding region amplified from petunia petal cDNA, expressed in E. coli from pMAL-c5X, purified on amylose resin; also called MBP-tagged α-subunit; MBP-PbBSα

Assays:
[1] = target: the molecule itself; assay: size exclusion chromatography (Superdex 200 Increase 10/300 GL), about 1 mg/mL; self-association
Description: (§1) 500 μL purified protein (˜ 500 μg) were loaded onto a Superdex 200 Increase 10/300 GL size exclusion column and eluted with PBS. The column was calibrated with the following markers: bovine thyroglobulin (670 kDa), bovine gamma globulin (158 kDa), chicken ovalbumin (44 kDa), horse myoglobulin (17 kDa), and vitamin B-12 (1.4 kDa).

[2] = target: T1, cEYFP-PhBSβ (PhBSβ tagged at its …); assay: bimolecular fluorescence complementation (BiFC) in Nicotiana benthamiana leaves, confocal microscopy
Description: The resulting constructs were used for transient expression in N. benthamiana leaves.
Transformation of constructs into A. tumefaciens and infiltration of cell cultures in tobacco leaves were performed as described above except that the final OD₆₀₀ of the culture was adjusted to 0.6. […] 48 hours after infiltration, the fluorescent signals in the leaves were imaged using a Zeiss LSM-880 laser-scanning confocal microscope (Zeiss, Thornwood, NY, USA).

[3] = target: B1; assay: size exclusion chromatography (Superdex 200 Increase 10/300 GL), about 1 mg/mL
Description: as §1

Row | binding result [2] | binding result [3] | Binder | binding result [1]
1 | – | – | MBP-tagged PhBSβ (beta subunit of Petunia hybrida benzaldehyde synthase) (enzyme, not shown: large carriers, Purified recombinant subunit from E. coli (pMAL-c5X, amylose resin); also called PtBSβ) MENSGKKVLLTSNGDDICNNIAYHLAQRGCQLVLMGNESQLKSVAEMIKQSLGGSAAVEVVGLDMEEDREAAFEEAVDKAWKIFGKLDALVNCYSYEGKMQDPLQLIEEEFKKIVKINFMAGWYLMKCISKKMRDDKSGGSIVFLTSIIGAERGIYQGAAAYGSCLGGIQQLVRLAAIELGKHQIRVNGISRGLHLQDEYPKAVGLERAEKMTKEAAPLNRWLDVKKDLASTVIYLISDDSRYMTGTSIFVDGAQSLVRPRMRSYM | binds
2 | binds | – | nEYFP-PhBSα (PhBSα tagged at its N-terminus with the N-terminal half of EYFP) (other, BiFC construct, transiently expressed in Nicotiana benthamiana leaves; not shown: N-terminal half of enhanced yellow fluorescent protein (nEYFP) of plasmid pCNHP-nEYFP-C) MEKQTQARFLEPWRDLKGKVVMVTGASSGIGLDLCLDLAKAGCKIIAAARRVDRLKSLCNQINAAADDDDDNNRAVAVELDVSANGDAIEAAVKEAWGAFGRIDALVNNAGVRGTVHSPLELTEEECHNTFRTNLTGTWLVSKYVCKFMRDAKQGGSVINISSIAGLNRGQLPGGLAYVSSKGAVNMVTKVMALELGVDKIRVNSISPGLFKSEITQGLIQKEWLNNVAMRTIPLRTHGNSADPALTSVVRYLIHDSSEYVSGNLFIVDAGATLPGVPIFSSL | –
3 | – | – | B1 | binds
4 | – | binds | MBP-tagged AtBSβ (beta subunit of Arabidopsis thaliana benzaldehyde synthase) (enzyme, not shown: large carriers, Purified recombinant subunit from E. coli; CDS amplified from flower cDNA (gene AT3G01980)) MENPAKRVLMTSNGDEVSRNIAFHLAKHGCKLVMMGNEGSLRSIVDKIRDSIEGAFPADVIALDMESDSEVAFHAAVQKAWELSGHFDAFLNSYTYQGKVQDILQVSQDEFHRITKINLTAPWFLLKAVATRMKDHGSGGSIVFMATIASGERALYPGADAYASTSAAIHQLVRASAMSLGKHKIRVNMISRGLHLDDEYTASVGRDRAQKLVKDAAPLGQWLNPDTDLYSTVIYLISDGSRFMTGTTVLVDGAQSLTRPRLKSYM | binds
